The source of these data is patent US20240368239A1, “Novel bispecific protein and use thereof” (SL METAGEN, priority 2020, published 2024).

The target of test [1] is GLP-1 receptor. Description: cell-based or functional assay.
For test [2], the target named is human GLP-2 receptor (human) (UniProt O95838). Description: cell-based or functional assay.
Chain of human GLP-2 receptor (human) (O95838 whole entry): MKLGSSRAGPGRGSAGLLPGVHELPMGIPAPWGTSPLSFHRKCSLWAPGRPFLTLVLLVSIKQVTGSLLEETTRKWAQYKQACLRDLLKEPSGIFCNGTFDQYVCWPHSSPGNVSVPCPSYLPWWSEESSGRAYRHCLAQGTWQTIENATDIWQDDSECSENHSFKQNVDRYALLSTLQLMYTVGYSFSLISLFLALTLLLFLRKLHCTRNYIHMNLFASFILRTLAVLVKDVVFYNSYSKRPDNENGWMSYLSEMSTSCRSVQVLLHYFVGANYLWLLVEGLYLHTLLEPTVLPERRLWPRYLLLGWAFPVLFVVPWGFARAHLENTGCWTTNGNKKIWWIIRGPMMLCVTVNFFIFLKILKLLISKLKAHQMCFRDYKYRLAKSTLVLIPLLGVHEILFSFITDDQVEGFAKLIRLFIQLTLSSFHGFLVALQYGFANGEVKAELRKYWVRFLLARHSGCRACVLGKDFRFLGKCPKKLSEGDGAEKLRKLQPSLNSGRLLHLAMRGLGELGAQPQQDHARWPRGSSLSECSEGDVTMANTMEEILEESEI

In the case of “native GLP-1 peptide (from UniProt P01275 98-127)”, in test [1], the EC50 (pM), cAMP luciferase reporter in GLP1R cAMP/luc cells was 26 pM and the vs. GLP-1 relative activity (%) was found to be 100%.

Consider “native GLP-2 peptide (from UniProt P01275 146-178)”, for which, in test [2], the EC50 (nM), cAMP-gated CNG channel membrane potential dye fluorescence (Ft/F0) in Human GLP2R ACTOne cells stood at 0.58 nM and the vs. GLP-2 relative activity (%) came to 100%.
